# Measurements taken from the supplement of paper PMC9112550, “Optimization of the antimicrobial peptide Bac7 by deep mutational scanning” (BMC Biology, 2022).
# Tested on: Escherichia coli TOP10
# Test: shrunken log2 fold change of peptide-encoding DNA abundance (4.5 h post-induction vs induction); higher = less antimicrobial activity (less host growth inhibition)
# Conditions: time post-induction: 4.5 h; library: site-saturation at positions 5, 18, 19, 20
# 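Note: peptides expressed intracellularly from a pBAD plasmid library in pooled LB shake-flask culture, induced with 0.3% L-arabinose, DNA abundance read by NGS, three biological replicates, DESeq2 with apeglm shrinkage.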
row,Sequence,shrunken log2 fold change
1,RRIRRRPPRLPRPRPRPSIQPRP,-0.0217
2,RRIRHRPPRLPRPRPRPYEDPRP,-0.336
3,RRIRKRPPRLPRPRPRPRRMPRP,0.488
4,RRIRMRPPRLPRPRPRPHRSPRP,-0.0246
5,RRIRERPPRLPRPRPRPYQAPRP,0.019
6,RRIRARPPRLPRPRPRPHVMPRP,-0.0593
7,RRIRSRPPRLPRPRPRPGFNPRP,-0.038
8,RRIRPRPPRLPRPRPRPANYPRP,0.0679
9,RRIRHRPPRLPRPRPRPWVHPRP,-0.179
10,RRIRTRPPRLPRPRPRPEMLPRP,0.0362
11,RRIRCRPPRLPRPRPRPPFFPRP,0.449
12,RRIRDRPPRLPRPRPRPRSLPRP,-0.0214
13,RRIRDRPPRLPRPRPRPPVGPRP,0.348
14,RRIRHRPPRLPRPRPRPIWHPRP,-0.327
15,RRIRVRPPRLPRPRPRPIWQPRP,-0.114
16,RRIRARPPRLPRPRPRPHWHPRP,-0.0354
17,RRIRYRPPRLPRPRPRPWNTPRP,-0.384
18,RRIRKRPPRLPRPRPRPDRMPRP,1.19
19,RRIRLRPPRLPRPRPRPQFRPRP,-0.244
20,RRIRGRPPRLPRPRPRPPHVPRP,1.04
21,RRIRQRPPRLPRPRPRPGIFPRP,0.0804
22,RRIRRRPPRLPRPRPRPYQQPRP,-0.000903
23,RRIRSRPPRLPRPRPRPYVKPRP,-0.351
24,RRIRYRPPRLPRPRPRPQHGPRP,-0.0664
25,RRIRNRPPRLPRPRPRPGHVPRP,-0.0552

row,Sequence,shrunken log2 fold change
1,RRIRCRPPRLPRPRPRPKHLPRP,-0.122
2,RRIRLRPPRLPRPRPRPQMHPRP,-0.295
3,RRIRHRPPRLPRPRPRPWCGPRP,-0.181
4,RRIRCRPPRLPRPRPRPHTPPRP,0.0337
5,RRIRFRPPRLPRPRPRPVCQPRP,0.109
6,RRIRGRPPRLPRPRPRPHEDPRP,3.55
7,RRIRIRPPRLPRPRPRPALPPRP,-0.0671
8,RRIRIRPPRLPRPRPRPTGNPRP,-0.626
9,RRIRARPPRLPRPRPRPSYYPRP,-0.731
10,RRIRSRPPRLPRPRPRPAYFPRP,-0.297
11,RRIRLRPPRLPRPRPRPFYYPRP,-0.666
12,RRIRCRPPRLPRPRPRPIFPPRP,0.247
13,RRIRWRPPRLPRPRPRPSPWPRP,0.0588
14,RRIRTRPPRLPRPRPRPFSLPRP,-0.0845
15,RRIRARPPRLPRPRPRPIAWPRP,0.442
16,RRIRDRPPRLPRPRPRPKQRPRP,0.314
17,RRIRQRPPRLPRPRPRPQCSPRP,-0.203
18,RRIRGRPPRLPRPRPRPGNMPRP,-0.0382
19,RRIRQRPPRLPRPRPRPTCWPRP,0.0954
20,RRIRKRPPRLPRPRPRPHCHPRP,0.0986
21,RRIRGRPPRLPRPRPRPYVHPRP,-0.142
22,RRIRNRPPRLPRPRPRPWWTPRP,-0.129
23,RRIRHRPPRLPRPRPRPITTPRP,-0.0193
24,RRIRYRPPRLPRPRPRPTKSPRP,-0.517
25,RRIRYRPPRLPRPRPRPLTAPRP,-0.492

row,Sequence,shrunken log2 fold change
1,RRIRERPPRLPRPRPRPCYHPRP,-0.744
2,RRIRSRPPRLPRPRPRPMPWPRP,-0.039
3,RRIRLRPPRLPRPRPRPCRFPRP,-0.226
4,RRIRWRPPRLPRPRPRPYWHPRP,-0.377
5,RRIRGRPPRLPRPRPRPTHDPRP,1.72
6,RRIRTRPPRLPRPRPRPKLTPRP,0.0272
7,RRIRNRPPRLPRPRPRPCIIPRP,-0.0176
8,RRIRVRPPRLPRPRPRPEPRPRP,0.708
9,RRIRDRPPRLPRPRPRPFYVPRP,-0.0754
10,RRIRWRPPRLPRPRPRPWHYPRP,-0.0627
11,RRIRFRPPRLPRPRPRPPASPRP,0.574
12,RRIRIRPPRLPRPRPRPHDVPRP,0.000407
13,RRIRMRPPRLPRPRPRPRECPRP,0.0611
14,RRIRWRPPRLPRPRPRPWQSPRP,0.0143
15,RRIRKRPPRLPRPRPRPFVKPRP,-0.00571
16,RRIRPRPPRLPRPRPRPQQDPRP,-0.301
17,RRIRYRPPRLPRPRPRPACPPRP,-0.0352
18,RRIRFRPPRLPRPRPRPPLFPRP,0.273
19,RRIRARPPRLPRPRPRPLHNPRP,0.00865
20,RRIRQRPPRLPRPRPRPTRGPRP,0.287
21,RRIRCRPPRLPRPRPRPVLVPRP,-0.0168
22,RRIRKRPPRLPRPRPRPYYIPRP,-0.372
23,RRIRGRPPRLPRPRPRPEVEPRP,2.03
24,RRIRRRPPRLPRPRPRPKYSPRP,-0.124
25,RRIRLRPPRLPRPRPRPPRHPRP,0.377

row,Sequence,shrunken log2 fold change
1,RRIRQRPPRLPRPRPRPTQYPRP,-0.0342
2,RRIRCRPPRLPRPRPRPEDRPRP,-0.0137
3,RRIRNRPPRLPRPRPRPGGYPRP,-0.0538
4,RRIRKRPPRLPRPRPRPEKRPRP,0.81
5,RRIRARPPRLPRPRPRPDGVPRP,0.971
6,RRIRDRPPRLPRPRPRPRPSPRP,0.329
7,RRIRGRPPRLPRPRPRPPKMPRP,0.348
8,RRIRIRPPRLPRPRPRPAVYPRP,-0.825
9,RRIRERPPRLPRPRPRPPDTPRP,-0.426
10,RRIRVRPPRLPRPRPRPLLCPRP,-0.642
11,RRIRNRPPRLPRPRPRPHHKPRP,-0.461
12,RRIRYRPPRLPRPRPRPDRSPRP,0.00326
13,RRIRRRPPRLPRPRPRPWTWPRP,-0.008
14,RRIRYRPPRLPRPRPRPLNPPRP,0.0535
15,RRIRNRPPRLPRPRPRPPTGPRP,0.154
16,RRIRYRPPRLPRPRPRPQMMPRP,-0.536
17,RRIRARPPRLPRPRPRPQYEPRP,0.181
18,RRIRVRPPRLPRPRPRPVQNPRP,-0.029
19,RRIRGRPPRLPRPRPRPINKPRP,0.287
20,RRIRPRPPRLPRPRPRPIQGPRP,-0.128
21,RRIRRRPPRLPRPRPRPRELPRP,0.887
22,RRIRLRPPRLPRPRPRPQIPPRP,-0.273
23,RRIRSRPPRLPRPRPRPNRLPRP,-0.205
24,RRIRKRPPRLPRPRPRPYADPRP,-0.0355
25,RRIRVRPPRLPRPRPRPEQWPRP,0.149

row,Sequence,shrunken log2 fold change
1,RRIRTRPPRLPRPRPRPCWSPRP,0.499
2,RRIRWRPPRLPRPRPRPPHMPRP,0.112
3,RRIRGRPPRLPRPRPRPGAWPRP,1.56
4,RRIRARPPRLPRPRPRPHHKPRP,-0.347
5,RRIRTRPPRLPRPRPRPQSIPRP,-0.125
6,RRIRVRPPRLPRPRPRPWYYPRP,0.0171
7,RRIRFRPPRLPRPRPRPHINPRP,-0.634
8,RRIRVRPPRLPRPRPRPYLAPRP,-0.413
9,RRIRNRPPRLPRPRPRPIIRPRP,-0.00165
10,RRIRIRPPRLPRPRPRPHSIPRP,-0.933
11,RRIRWRPPRLPRPRPRPMACPRP,-0.0978
12,RRIRLRPPRLPRPRPRPNQSPRP,-0.0737
13,RRIRDRPPRLPRPRPRPPNWPRP,0.28
14,RRIRNRPPRLPRPRPRPHHHPRP,-0.617
15,RRIRCRPPRLPRPRPRPPSHPRP,-0.0142
16,RRIRFRPPRLPRPRPRPSTQPRP,-0.503
17,RRIRHRPPRLPRPRPRPIPSPRP,-0.274
18,RRIRVRPPRLPRPRPRPYYMPRP,-0.997
19,RRIRDRPPRLPRPRPRPHMSPRP,-0.00968
20,RRIRKRPPRLPRPRPRPWFTPRP,-0.00863
21,RRIRHRPPRLPRPRPRPCPDPRP,0.0299
22,RRIRWRPPRLPRPRPRPWKMPRP,-0.0467
23,RRIRVRPPRLPRPRPRPIPTPRP,0.191
24,RRIRPRPPRLPRPRPRPKSIPRP,-0.352
25,RRIRYRPPRLPRPRPRPQIKPRP,-0.969

row,Sequence,shrunken log2 fold change
1,RRIRTRPPRLPRPRPRPDAQPRP,0.193
2,RRIRVRPPRLPRPRPRPDVYPRP,-0.0411
3,RRIRSRPPRLPRPRPRPINTPRP,-0.648
4,RRIRGRPPRLPRPRPRPQNEPRP,0.208
5,RRIRMRPPRLPRPRPRPRKMPRP,0.356
6,RRIRFRPPRLPRPRPRPIHYPRP,-1.14
7,RRIRKRPPRLPRPRPRPWCVPRP,-0.00029
8,RRIRLRPPRLPRPRPRPCHSPRP,-0.011
9,RRIRGRPPRLPRPRPRPFWWPRP,0.806
10,RRIRNRPPRLPRPRPRPFMTPRP,-0.429
11,RRIRDRPPRLPRPRPRPSYLPRP,-0.233
12,RRIRWRPPRLPRPRPRPKNMPRP,-0.189
13,RRIRQRPPRLPRPRPRPLSNPRP,-0.109
14,RRIRMRPPRLPRPRPRPLHKPRP,0.301
15,RRIRYRPPRLPRPRPRPAGDPRP,-0.232
16,RRIRWRPPRLPRPRPRPAHRPRP,0.49
17,RRIRERPPRLPRPRPRPRWGPRP,0.239
18,RRIRPRPPRLPRPRPRPYEHPRP,-0.408
19,RRIRVRPPRLPRPRPRPGKQPRP,0.0812
20,RRIRMRPPRLPRPRPRPKVTPRP,0.209
21,RRIRTRPPRLPRPRPRPQMSPRP,0.056
22,RRIRCRPPRLPRPRPRPDAHPRP,-0.0835
23,RRIRDRPPRLPRPRPRPMKLPRP,-0.0161
24,RRIRMRPPRLPRPRPRPTWAPRP,0.192
25,RRIRMRPPRLPRPRPRPVWFPRP,0.46
